According to patent US20250152746A1, “BASE EDITING OF ANGPTL3 AND METHODS OF USING SAME FOR TREATMENT OF DISEASE” (Verve Therapeutics, Inc., priority 2020, published 2025):
In the oligonucleotide strings, read from the 5' end, every base follows the letter of its sugar. An asterisk marks phosphorothioate; unmarked linkages are phosphodiester. Other units and linkages are bracketed, terminal groups are in braces. A string of capitals states the bases alone. m = 2'-O-methyl; r = 2'-OH (RNA)

How the values were obtained:
PCSK9 gene [1] = test: PCSK9 gRNA/SpCas9 editing in primary cynomolgus hepatocytes (Tables 2, 22); format: cell-based, cynomolgus monkey
Description: (§1) In set of experiments, PCSK9 gRNAs were co-transfected with an equivalent amount (1:1 ratio by weight) of in vitro transcribed commercially available SpCas9 mRNA MS002 purchased from TriLink Biotechnologies into primary human hepatocytes at 2500, 500, or 100 ng/RNA/mL and processed as described in detailed methods. Extracted genomic DNA was analyzed for gene editing at the target site with next-generation sequencing of PCR amplicons generated around the target sites. Samples were prepared using the Nextera XT DNA library preparation kit (Illumina) according to the manufacturer's protocol. Briefly, two rounds of PCR were performed first to amplify the region of interest and second to add DNA sequences required for next generation sequencing and sample identification to the initial product. The final amplicon was sequenced on the Illumina MiSeq instrument according to the manufacturer's protocol. A wide range of editing activities (Table 2) were observed. In a second set of experiments, ANGPTL3 gRNAs were co-transfected with an equivalent amount of in vitro transcribed SpCas9 mRNA (1:1 ratio by weight) into primary human hepatocytes and processed and analyzed similarly (Table 3).
[…] Genomic DNA was processed, sequenced, and analyzed as described in the detailed methods section. GA266 was transfected independently twice to serve as two positive controls.
(§2) Plating, culturing, and transfection of primary hepatocytes. Primary human liver hepatocytes (PHH) and primary cynomolgus liver hepatocytes (PCH) from BioIVT were cultured per the manufacturer's protocol. Briefly, primary human hepatocytes and primary cyno hepatocytes were obtained as frozen aliquots from BioIVT. Four lots of primary human hepatocytes, each derived from a de-identified individual donor, were used for the experiments: STL (main donor) was used for all experiments, including screening experiments and off-target experiments; HLY, JLP, and TLY were used for off-target experiments. The HFG lot of primary cyno hepatocytes were used for experiments. Following the manufacturer's instructions, cells were thawed and rinsed prior to plating in 24-well plates that had been coated with bovine collagen overnight, with a density of approximate 350,000 cells/well in INVITROGRO hepatocyte medium supplemented with TORPEDO antibiotic mix (BioIVT). The cells were thawed and resuspended in hepatocyte thawing medium followed by centrifugation at 100 g for 10 min at 4° C. The supernatant was discarded, and the pelleted cells resuspended in hepatocyte plating medium. Each vial contains approximately 5 million cells that were used for plating one 24-well plate. Plated cells were allowed to settle and adhere for 4-6 h in a tissue culture incubator at 37° C. under 5% CO2 atmosphere. After incubation, cells were checked for monolayer formation. The incubating media were then replaced with fresh hepatocyte maintenance media (complete INVITROGRO medium obtained from BioIVT, the cell line provider). The cells thus became ready for transfection. Each of the gRNAs were co-transfected with an equivalent amount of in vitro transcribed ABE8.8 mRNA (1:1 ratio by molecular weight) into primary human hepatocytes via MessengerMax reagent (Lipofectamine), using various dilutions to assess for editing activity at different concentrations of test article. MessengerMAX from Thermo Fisher is used for transfection. Solution A: desired amount of guide RNA is mixed with 1:1 wt ratio of mRNA in OptiMEM. Solution B: MessengerMAX in OptiMEM. After mixing solutions A and B, the mixture was incubated at room temperature for 20 min. 60 μL of the incubated solution was added dropwise to each cell wells. For protospacer sequences that were a perfect match to the corresponding cynomolgous monkey PCSK9 or ANGPTL3 gene sequence, each gRNA was also co-transfected with an equivalent amount of ABE8.8 mRNA (1:1 ratio by molecular weight) into primary cynomolgous hepatocytes, and followed the same transfection protocol. […]

PCSK9 gene [2] = test: PCSK9 gRNA/SpCas9 editing in primary human hepatocytes (Tables 2, 4); format: cell-based; conditions: for editing compared with minimally modified control gRNA GA009: SpCas9 mRNA MS002; for % Editing, day 3 / % Editing, day 5: modified gRNA; for % Editing, day 3: day 3 post transfection; for % Editing, day 5: day 5 post transfection
Description: as §1
PCSK9 gRNAs were co-transfected with an equivalent amount of in vitro transcribed SpCas9 mRNA MS002 (1:1 ratio by weight) into primary human hepatocytes and processed as described in detailed methods. A wide range of editing activities were observed (Table 4; ND=Not determined). The guides with the highest editing activity at five days post transfection were GA001, GA002, GA007, and GA008.
Human primary hepatocytes were transfected at 2500, 1250, 500, and 250 ng/test article/mL with SpCas9 mRNA MS002 and a gRNA targeting PCSK9 with modifications to the tracr. Genomic DNA was processed, sequenced, and analyzed as described in the detailed methods section. GA156 was transfected to serve as a positive control.
as §2, with “transfection.” for “transfection. Solution A: desired amount of guide RNA is mixed with 1:1 wt ratio of mRNA in OptiMEM. Solution B: MessengerMAX in OptiMEM. After mixing solutions A and B, the mixture was incubated at room temperature for 20 min. 60 μL of the incubated solution was added dropwise to each cell wells. For protospacer sequences that were a perfect match to the corresponding cynomolgous monkey PCSK9 or ANGPTL3 gene sequence, each gRNA was also co-transfected with an equivalent amount of ABE8.8 mRNA (1:1 ratio by molecular weight) into primary cynomolgous hepatocytes, and followed the same transfection protocol.”

[3] = SpCas9 mRNA MS002, 625 ng/test article/mL, rep1
[4] = SpCas9 mRNA MS002, 625 ng/test article/mL, rep2
[5] = SpCas9 mRNA MS002, 1250 ng/test article/mL, rep1
[6] = SpCas9 mRNA MS002, 1250 ng/test article/mL, rep2
[7] = SpCas9 mRNA MS002, 2500 ng/test article/mL, rep1
[8] = SpCas9 mRNA MS002, 2500 ng/test article/mL, rep2
[9] = SpCas9 mRNA MS002 1:1 by weight

| Molecule | Cynomolgus Primary Hepatocytes-% Editing (PCSK9 gene [1]; [3]) [%] | Cynomolgus Primary Hepatocytes-% Editing (PCSK9 gene [1]; [4]) [%] | Cynomolgus Primary Hepatocytes-% Editing (PCSK9 gene [1]; [5]) [%] | Cynomolgus Primary Hepatocytes-% Editing (PCSK9 gene [1]; [6]) [%] | Cynomolgus Primary Hepatocytes-% Editing (PCSK9 gene [1]; [7]) [%] | Cynomolgus Primary Hepatocytes-% Editing (PCSK9 gene [1]; [8]) [%] | editing compared with minimally modified control gRNA GA009 (PCSK9 gene [2]) | % Editing, day 3 (PCSK9 gene [2]; [9]) [%] | % Editing, day 5 (PCSK9 gene [2]; [9]) [%] | Human Primary Hepatocyte Editing % 100 (PCSK9 gene [2]; 100 ng/RNA/mL, SpCas9 mRNA MS002 1:1 by weight) [%] | Human Primary Hepatocyte Editing % 500 (PCSK9 gene [2]; 500 ng/RNA/mL, SpCas9 mRNA MS002 1:1 by weight) [%] | Human Primary Hepatocyte Editing % 2500 (PCSK9 gene [2]; 2500 ng/RNA/mL, SpCas9 mRNA MS002 1:1 by weight) [%] |
| --- | --- | --- | --- | --- | --- | --- | --- | --- | --- | --- | --- | --- |
| GA402 (nucleic acid) guide: mU*mC*mA*rGrCrUrCrCrArGrGrCrGrGrUrCrCrUrGrGmGrUrUrUrUrArGmAmGmCmUmArGmAmAmAmUmAmGmCmAmArGrUrUmArAmArAmUrAmAmGmGmCmUmArGrUmCmCrGrUrUrAmUmCrArAmCmUmUrGmAmAmAmAmAmGmUmGrGmCmAmCmCmGmAmGmUmCmGmGmUmGmCmU*mU*mU*mUmUrUmU | 35.05 | 40.31 | 44.46 | 47.93 | 45.58 | 55.34 | – | – | – | – | – | – |
| GA406 (nucleic acid, listed as RNA; modified_base 1: mod_base = OTHER; note = 2'-O-Methyl-uridine phosphorothioate; modified_base 2: mod_base = OTHER; note = 2'-O-Methyl-cytidine phosphorothioate; modified_base 3: mod_base = OTHER; note = 2'-O-Methyl-adenosine phosphorothioate;) guide: TCAGCTCCAGGCGGTCCTGGGTTTTAGAGCTAGAAATAGCAAGTTAAAATAAGGCTAGTCCGTTATCAACTTGAAAAAGTGGCACCGAGTCGGTGCTTTTTTT | 37.58 | 40.31 | 45.11 | 43.68 | 57.17 | 51.45 | – | – | – | – | – | – |
| GA403 (nucleic acid) guide: mU*mC*mA*rGrCrUrCrCrArGrGrCrGrGrUrCrCrUrGrGmGrUrUrUrUrArGmAmGmCmUmArGmAmAmAmUmAmGmCmAmArGrUrU*mArAmArAmUrAmAmGmGmCmUmArGrUmCmCrGrUrUrAmUmCrArAmCmUmUrGmAmAmAmAmAmGmUmGrGmCmAmCmCmGmAmGmUmCmGmGmUmGmCmU*mU*mU*mUmUrUmU | 38.28 | 35.58 | 50.5 | 47.13 | 52.62 | 55.84 | – | – | – | – | – | – |
| GA008: structure-guided 2′-OMe heavy guide RNA (gRNA) design, PCSK9 (nucleic acid) guide: mG*mG*mU*rGrCrUrArGrCrCrUrUrGrCrGrUrUrCrCrGmGrUrUrUrUrArGmAmGmCmUmAmGmAmAmAmUmAmGmCmAmArGrUrU*mArAmArAmUrAmAmGmGmCmUmArGrUmCmCrGrUrU*rAmUmCrArAmCmUmUmGmAmAmAmAmAmGmUmGrGmCmAmCmCmGmAmGmUmCmGmGmUmGmCmU*mU*mU*mU | – | – | – | – | – | – | improved editing | 20 | 28 | – | – | – |
| GA401 (nucleic acid) guide: mU*mC*mA*rGrCrUrCrCrArGrGrCrGrGrUrCrCrUrGrGmGrUrUrUrUrArGmAmGmCmUmAmGmAmAmAmUmAmGmCmAmArGrUrUmArAmArAmUrAmAmGmGmCmUmArGrUmCmCrGrUrUrAmUmCrArAmCmUmUmGmAmAmAmAmAmGmUmGrGmCmAmCmCmGmAmGmUmCmGmGmUmGmCmU*mU*mU*mUmUmUmU | 38.33 | 38.77 | 49.12 | 48.83 | 53.74 | 52.79 | – | – | – | – | – | – |
| GA408 (nucleic acid) guide: mU*mC*mA*rGrCrUrCrCrArGrGrCrGrGrUrCrCrUrGrGmGrUrUrUrUrArGmAmGmCmUmAmGmAmAmAmUmAmGmCmAmArGrUrUmArAmArAmUrAmAmGmGmCmUmArGrUmCmCrGrUrUrAmUmCrArAmCmUmUmGmAmAmAmAmAmGmUmGrGmCmAmCmCmGmAmGmUmCmGmGmUmGmCmU*mU*mU*mUmUrUmU | 36.7 | 37.14 | 47.21 | 49.8 | 50.4 | 46.92 | – | – | – | – | – | – |
| GA404 (nucleic acid) guide: mU*mC*mA*rGrCrUrCrCrArGrGrCrGrGrUrCrCrUrGrGmGrUrUrUrUrArGmAmGmCmUmArGmAmAmAmUmAmGmCmAmArGrUrUmArAmArAmUrAmAmGmGmCmUmArGrUmCmCrGrUrU*rAmUmCrArAmCmUmUrGmAmAmAmAmAmGmUmGrGmCmAmCmCmGmAmGmUmCmGmGmUmGmCmU*mU*mU*mUmUrUmU | 31.63 | 30.16 | 41.68 | 35.04 | 48.3 | 50.59 | – | – | – | – | – | – |
| GA226: PCSK9 gRNA; protospacer GGCTTTTCCGAATAAACTCC (SEQ ID NO: 220) (nucleic acid, sugars from the 5' end m3 r94 m3, linkages s3 o93 s3 (s phosphorothioate, o phosphodiester), T or U not given here) guide: GGCUUUUCCGAAUAAACUCCGUUUUAGAGCUAGAAAUAGCAAGUUAAAAUAAGGCUAGUCCGUUAUCAACUUGAAAAAGUGGCACCGAGUCGGUGCUUUU | – | – | – | – | – | – | – | – | – | 0.4 | 2.99 | 7.61 |
| GA007: structure-guided 2′-OMe heavy guide RNA (gRNA) design, PCSK9 (nucleic acid) guide: mG*mG*mU*rGrCrUrArGrCrCrUrUrGrCrGrUrUrCrCrGmGrUrUrUrUrArGmAmGmCmUmAmGmAmAmAmUmAmGmCmAmArGrUrUmArAmArAmUrAmAmGmGmCmUmArGrUmCmCrGrUrUrAmUmCrArAmCmUmUmGmAmAmAmAmAmGmUmGrGmCmAmCmCmGmAmGmUmCmGmGmUmGmCmU*mU*mU*mU | – | – | – | – | – | – | improved editing | 30 | 27 | – | – | – |
